Assay results: publication PMC11969024 (2025)

B1: peptide HD2 (from tick evasin EVA4) / CCL18 (biotinylated, synthetic) (parent complex)
chain 1: EEDDYTAYAPLTCYFT
chain 2: AQVGTNKELCCLVYTSWQIPQKFIVDYSETSPQCPKPGVILLTKRGRQICADPNKKWVQKYISDLKLNA
B2: peptide HD2 (from tick evasin EVA4) / CCL1 (biotinylated, synthetic) (parent complex)
chain 1: EEDDYTAYAPLTCYFT
chain 2: KSMQVPFSRCCFSFAEQEIPLRAILCYRNTSSICSNEGLIFKLKRGKEACALDTVGWVQRHRKMLRHCPSKRK

Variants of: B1

Row | Variant | enrichment
1 | chain 1 AEDDYTAYAPLTCYFT [chain 1 E1A] | -0.823 log2 (difference from the parental peptide)
2 | chain 1 EEDDYTAYAPLTCYFF [chain 1 T16F] | -0.482 log2 (difference from the parental peptide)
3 | chain 1 EEDDYVAYAPLTCYFT [chain 1 T6V] | -3.07 log2 (difference from the parental peptide)
4 | chain 1 EEDDYEAYAPLTCYFT [chain 1 T6E] | 2.48 log2 (difference from the parental peptide)
5 | chain 1 EEDDYTAYAPLNCYFT [chain 1 T12N] | -1.81 log2 (difference from the parental peptide)
6 | chain 1 EEMDYTAYAPLTCYFT [chain 1 D3M] | -1.4 log2 (difference from the parental peptide)
7 | chain 1 EEWDYTAYAPLTCYFT [chain 1 D3W] | -1.95 log2 (difference from the parental peptide)
8 | chain 1 EEDDYTNYAPLTCYFT [chain 1 A7N] | -0.0931 log2 (difference from the parental peptide)
9 | chain 1 EEDDYTAYAPWTCYFT [chain 1 L11W] | 0.64 log2 (difference from the parental peptide)
10 | chain 1 EEDDYTAYAPHTCYFT [chain 1 L11H] | 0.897 log2 (difference from the parental peptide)
11 | chain 1 EEDDYTAYAPLTCHFT [chain 1 Y14H] | -1.38 log2 (difference from the parental peptide)
12 | chain 1 EEDDYTAYAPLTCGFT [chain 1 Y14G] | -8.38 log2 (difference from the parental peptide)
13 | chain 1 EEDDYTAYAPLTCYAT [chain 1 F15A] | 0.456 log2 (difference from the parental peptide)
14 | chain 1 EEDDYTAYAPLTCYGT [chain 1 F15G] | -4.09 log2 (difference from the parental peptide)

Variants of: B2

Row | Variant | enrichment
15 | chain 1 EEDDYTAYAVLTCYFT [chain 1 P10V] | -9.61 log2 (difference from the parental peptide)
16 | chain 1 EEDDYTAYAWLTCYFT [chain 1 P10W] | -5.49 log2 (difference from the parental peptide)
17 | chain 1 EEDDYTAYAELTCYFT [chain 1 P10E] | -5.54 log2 (difference from the parental peptide)
18 | chain 1 EEDDYTAYADLTCYFT [chain 1 P10D] | -1.68 log2 (difference from the parental peptide)
19 | chain 1 EEDDYTAYAGLTCYFT [chain 1 P10G] | -5.87 log2 (difference from the parental peptide)
20 | chain 1 EEDDYTAYALLTCYFT [chain 1 P10L] | -8.15 log2 (difference from the parental peptide)
21 | chain 1 EEHDYTAYAPLTCYFT [chain 1 D3H] | -3.87 log2 (difference from the parental peptide)
22 | chain 1 EEYDYTAYAPLTCYFT [chain 1 D3Y] | -2.01 log2 (difference from the parental peptide)
23 | chain 1 EELDYTAYAPLTCYFT [chain 1 D3L] | -3.89 log2 (difference from the parental peptide)
24 | chain 1 EEQDYTAYAPLTCYFT [chain 1 D3Q] | -3.22 log2 (difference from the parental peptide)
25 | chain 1 EEPDYTAYAPLTCYFT [chain 1 D3P] | -2.66 log2 (difference from the parental peptide)
26 | chain 1 EEIDYTAYAPLTCYFT [chain 1 D3I] | -4.23 log2 (difference from the parental peptide)
27 | chain 1 EEMDYTAYAPLTCYFT [chain 1 D3M] | -2.32 log2 (difference from the parental peptide)
28 | chain 1 EEFDYTAYAPLTCYFT [chain 1 D3F] | -4 log2 (difference from the parental peptide)
29 | chain 1 EEDDYTAYAPLTMYFT [chain 1 C13M] | -7.16 log2 (difference from the parental peptide)
30 | chain 1 EEDDYTAYAPLTFYFT [chain 1 C13F] | -7.86 log2 (difference from the parental peptide)
31 | chain 1 EEDDYTAYAPLTTYFT [chain 1 C13T] | -4.75 log2 (difference from the parental peptide)
32 | chain 1 EEDDYTAYAPLTRYFT [chain 1 C13R] | -9.78 log2 (difference from the parental peptide)
33 | chain 1 EEDDYTAYAPLTWYFT [chain 1 C13W] | -8.88 log2 (difference from the parental peptide)
34 | chain 1 EEDDYTAYAPLTQYFT [chain 1 C13Q] | -7.02 log2 (difference from the parental peptide)
35 | chain 1 EEDDYTAWAPLTCYFT [chain 1 Y8W] | -3.69 log2 (difference from the parental peptide)
36 | chain 1 EEDDYTADAPLTCYFT [chain 1 Y8D] | -6.77 log2 (difference from the parental peptide)
37 | chain 1 EEDDYTAIAPLTCYFT [chain 1 Y8I] | -5.15 log2 (difference from the parental peptide)
38 | chain 1 EEDDYTAAAPLTCYFT [chain 1 Y8A] | -8 log2 (difference from the parental peptide)
39 | chain 1 EEDDYTAYAPLTCYFD [chain 1 T16D] | 2.85 log2 (difference from the parental peptide)

Row | Variant | enrichment
40 | chain 1 EEDDYTAYAPLTCYFK [chain 1 T16K] | -1.01 log2 (difference from the parental peptide)
41 | chain 1 EEDDYTAYAPLTCYFI [chain 1 T16I] | -0.756 log2 (difference from the parental peptide)
42 | chain 1 EEDDYTAYAPLTCYFR [chain 1 T16R] | -4.51 log2 (difference from the parental peptide)
43 | chain 1 EEDDYTAYAPLTCYFY [chain 1 T16Y] | -0.704 log2 (difference from the parental peptide)
44 | chain 1 EEDDYTAYAPLTCYPT [chain 1 F15P] | -0.0179 log2 (difference from the parental peptide)
45 | chain 1 EEDDYTAYAPLTCYGT [chain 1 F15G] | -3.15 log2 (difference from the parental peptide)
46 | chain 1 EEDDYTAYAPLTCYIT [chain 1 F15I] | 2.23 log2 (difference from the parental peptide)
47 | chain 1 EEDDYTAYAPLTCYDT [chain 1 F15D] | -3.07 log2 (difference from the parental peptide)
48 | chain 1 EEDDYTAYAPLTCYQT [chain 1 F15Q] | 0.462 log2 (difference from the parental peptide)
49 | chain 1 EEDDYTAYAPLTCYMT [chain 1 F15M] | 1.5 log2 (difference from the parental peptide)
50 | chain 1 EEDDYTAYAPLTCYKT [chain 1 F15K] | -1.11 log2 (difference from the parental peptide)
51 | chain 1 EEDDYTAYAPLTCYRT [chain 1 F15R] | -0.358 log2 (difference from the parental peptide)
52 | chain 1 EEDDYTAYAPLTCHFT [chain 1 Y14H] | -5.22 log2 (difference from the parental peptide)
53 | chain 1 EEDDYTAYAPLTCCFT [chain 1 Y14C] | -6.55 log2 (difference from the parental peptide)
54 | chain 1 EEDDYTAYAPLTCVFT [chain 1 Y14V] | -4.97 log2 (difference from the parental peptide)
55 | chain 1 EEDDYTAYAPLTCLFT [chain 1 Y14L] | -6.02 log2 (difference from the parental peptide)
56 | chain 1 EEDDYTAYAPLTCAFT [chain 1 Y14A] | -7.68 log2 (difference from the parental peptide)
57 | chain 1 EEDDYTAYAPLTCSFT [chain 1 Y14S] | -6.58 log2 (difference from the parental peptide)
58 | chain 1 EEDDYTAYAPHTCYFT [chain 1 L11H] | -1.29 log2 (difference from the parental peptide)
59 | chain 1 EEDDYTAYAPKTCYFT [chain 1 L11K] | -0.661 log2 (difference from the parental peptide)
60 | chain 1 EEDDYTAYAPMTCYFT [chain 1 L11M] | 2.12 log2 (difference from the parental peptide)
61 | chain 1 EEDDYLAYAPLTCYFT [chain 1 T6L] | -3.32 log2 (difference from the parental peptide)
62 | chain 1 EEDDYRAYAPLTCYFT [chain 1 T6R] | -1.22 log2 (difference from the parental peptide)
63 | chain 1 EEDDYAAYAPLTCYFT [chain 1 T6A] | 2.46 log2 (difference from the parental peptide)
64 | chain 1 EEDDYMAYAPLTCYFT [chain 1 T6M] | -2.14 log2 (difference from the parental peptide)

Row | Variant | enrichment
65 | chain 1 EEDDYKAYAPLTCYFT [chain 1 T6K] | -3.59 log2 (difference from the parental peptide)
66 | chain 1 EEDDYSAYAPLTCYFT [chain 1 T6S] | 4.57 log2 (difference from the parental peptide)
67 | chain 1 EEDDYTAYAPLLCYFT [chain 1 T12L] | -0.228 log2 (difference from the parental peptide)
68 | chain 1 EEDDYTAYAPLECYFT [chain 1 T12E] | -2.48 log2 (difference from the parental peptide)
69 | chain 1 EEDDYTAYAPLDCYFT [chain 1 T12D] | -0.0823 log2 (difference from the parental peptide)
70 | chain 1 EEDDYTAYAPLICYFT [chain 1 T12I] | -1.49 log2 (difference from the parental peptide)
71 | chain 1 EEDDYTAYAPLFCYFT [chain 1 T12F] | -1.45 log2 (difference from the parental peptide)
72 | chain 1 EEDDYTAYAPLQCYFT [chain 1 T12Q] | -2.05 log2 (difference from the parental peptide)
73 | chain 1 EEDDYTAYAPLKCYFT [chain 1 T12K] | -1.81 log2 (difference from the parental peptide)
74 | chain 1 EEDDYTAYAPLMCYFT [chain 1 T12M] | -0.791 log2 (difference from the parental peptide)
75 | chain 1 EEDDYTAYAPLHCYFT [chain 1 T12H] | -0.868 log2 (difference from the parental peptide)
76 | chain 1 NEDDYTAYAPLTCYFT [chain 1 E1N] | -1.4 log2 (difference from the parental peptide)
77 | chain 1 MEDDYTAYAPLTCYFT [chain 1 E1M] | -0.363 log2 (difference from the parental peptide)
78 | chain 1 SEDDYTAYAPLTCYFT [chain 1 E1S] | -1.56 log2 (difference from the parental peptide)
79 | chain 1 AEDDYTAYAPLTCYFT [chain 1 E1A] | -1.47 log2 (difference from the parental peptide)
80 | chain 1 VEDDYTAYAPLTCYFT [chain 1 E1V] | -1.48 log2 (difference from the parental peptide)
81 | chain 1 EEDDYTAYGPLTCYFT [chain 1 A9G] | -5.92 log2 (difference from the parental peptide)
82 | chain 1 EEDDYTAYVPLTCYFT [chain 1 A9V] | -7.56 log2 (difference from the parental peptide)
83 | chain 1 EEDDYTAYRPLTCYFT [chain 1 A9R] | -5.43 log2 (difference from the parental peptide)
84 | chain 1 EEDDYTAYTPLTCYFT [chain 1 A9T] | -4.64 log2 (difference from the parental peptide)
85 | chain 1 EEDDYTAYWPLTCYFT [chain 1 A9W] | -3 log2 (difference from the parental peptide)
86 | chain 1 EEDDYTAYNPLTCYFT [chain 1 A9N] | -5.08 log2 (difference from the parental peptide)
87 | chain 1 EEDDYTAYIPLTCYFT [chain 1 A9I] | -6.64 log2 (difference from the parental peptide)
88 | chain 1 EEDDYTAYLPLTCYFT [chain 1 A9L] | -6.22 log2 (difference from the parental peptide)
89 | chain 1 EEDDYTAYQPLTCYFT [chain 1 A9Q] | -0.52 log2 (difference from the parental peptide)

Row | Variant | enrichment
90 | chain 1 EEDDYTAYPPLTCYFT [chain 1 A9P] | -5.04 log2 (difference from the parental peptide)
91 | chain 1 EEDDYTAYMPLTCYFT [chain 1 A9M] | -5.21 log2 (difference from the parental peptide)
92 | chain 1 EEDDYTQYAPLTCYFT [chain 1 A7Q] | 2.46 log2 (difference from the parental peptide)
93 | chain 1 EEDDYTDYAPLTCYFT [chain 1 A7D] | 0.378 log2 (difference from the parental peptide)
94 | chain 1 EEDDYTVYAPLTCYFT [chain 1 A7V] | -4.61 log2 (difference from the parental peptide)
95 | chain 1 EEDDYTPYAPLTCYFT [chain 1 A7P] | -0.46 log2 (difference from the parental peptide)
96 | chain 1 EEDDYTGYAPLTCYFT [chain 1 A7G] | -2.66 log2 (difference from the parental peptide)
97 | chain 1 EEDDYTSYAPLTCYFT [chain 1 A7S] | -0.477 log2 (difference from the parental peptide)
98 | chain 1 EEDDYTKYAPLTCYFT [chain 1 A7K] | 2.4 log2 (difference from the parental peptide)
99 | chain 1 EEDDYTYYAPLTCYFT [chain 1 A7Y] | -2.42 log2 (difference from the parental peptide)
100 | chain 1 EEDDYTTYAPLTCYFT [chain 1 A7T] | -3.41 log2 (difference from the parental peptide)
101 | chain 1 ENDDYTAYAPLTCYFT [chain 1 E2N] | -2.76 log2 (difference from the parental peptide)
102 | chain 1 EQDDYTAYAPLTCYFT [chain 1 E2Q] | -3.13 log2 (difference from the parental peptide)
103 | chain 1 EPDDYTAYAPLTCYFT [chain 1 E2P] | -5.28 log2 (difference from the parental peptide)
104 | chain 1 EWDDYTAYAPLTCYFT [chain 1 E2W] | -0.836 log2 (difference from the parental peptide)
105 | chain 1 EMDDYTAYAPLTCYFT [chain 1 E2M] | -2.13 log2 (difference from the parental peptide)
106 | chain 1 ETDDYTAYAPLTCYFT [chain 1 E2T] | -2.76 log2 (difference from the parental peptide)
107 | chain 1 EDDDYTAYAPLTCYFT [chain 1 E2D] | 1.47 log2 (difference from the parental peptide)
108 | chain 1 ERDDYTAYAPLTCYFT [chain 1 E2R] | -4.77 log2 (difference from the parental peptide)
109 | chain 1 EEDEYTAYAPLTCYFT [chain 1 D4E] | -2.17 log2 (difference from the parental peptide)
110 | chain 1 EEDMYTAYAPLTCYFT [chain 1 D4M] | -5.27 log2 (difference from the parental peptide)
111 | chain 1 EEDSYTAYAPLTCYFT [chain 1 D4S] | -6.83 log2 (difference from the parental peptide)
112 | chain 1 EEDDNTAYAPLTCYFT [chain 1 Y5N] | -6.94 log2 (difference from the parental peptide)
